Assay: soluble on expression in E. coli; label from the status in PepcDB or PDB records

Sequence | soluble on expression in E. coli
MGSDKIHHHHHHMLKSQEIRQKAPELDSLRLGSGWKSEELNKAQIIIESSFGHSHPGSAHLDTLVDEAFKSIDDNGGRGAKYFVTDICDGETQGHDGMNYSLASRDIMTNLMEIHVQATPFDAGIFIASCDKAVPAHLMAIARLDMPSILVPGGIMNAGPNMLTLEQIGTYNAQYERGEITKEQYEHYKQNACPSCGACSFMGTASTMQVMSEALGIALPGTALIPVTSKELKLAAKNAGKQILKLIELNIKPSEIMTKKAFENAIMVHAAIAGSSNCLLHIPAIAHELGMDIEPELFDEIHKKIPYILNIRPSGFYPGSYFWNAGGVPAIMEEIKEFLHLDVMTVTGKTLGENLEDLKNSGYYEEHDKLITSLGIKKEDVIRTKENPIQSQGAIAILKGNLAPGGAVVKHSAISKKLMQVVLKARVFNCEEDAIKSVLTKNIKPGDAVFVRYEGPKGSGMPEMFYTTEAIASDHELVDSTALITDGRFSGATRGPAIGHVSPEASEGGPIAFVQEGDLIKIDIPARKLDIIGTNGIEKSEKEIENILKERSQNWVKPAPRYTKGILGLYTRCASSPMKGGYME | not soluble
MSLSARSSHLSQPVVKSVLVYRNGDPFYAGRRVVIHEKKVSSFEVFLKEVTGGVQAPFGAVRNIYTPRTGHRIRKLDQIQSGGNYVAGGQEAFKKLNYLDIGEIKKRPMEVVNTEVKPVIHSRINVSARFRKPLQEPCTIFLIANGDLINPASRLLIPRKTLNQWDHVLQMVTEKITLRSGAVHRLYTLEGKLVESGAELENGQFYVAVGRDKFKKLPYSELLFDKSTMREGHHHHHH | not soluble
MVKLILAEVFNSWQGEGGSVPGSAFGRRQIFVRFAGCDLRCIWCDSSQFIDASKVKKWRIEVEPFSGRFEYRENPASIDEVVDAILKLDTGDLHSISYTGGEPTLQIEGLYILMERMKGLGFDNFLETHGGHPELIKRVSYLTDYASVDIKDESARASRDWRGLVLKEVESIKILKEAGAKVYAKLVVTRETKLENVKWYANLLKGVAPLAIQPKEPMDISMEYLMKLYREAARIMGKKNVGLSFQVHKYLKVL | soluble
KIDDGTELKLKGEKLRYVSRGGLKLEKALAVFNLSVEDMITIDIGASTGGFTDVMLQNGAKLVYAVDVGTNQLVWKLRQDDRVRSMEQYNFRYAEPVDFTEGLPSFASIDVSFISLNLILPALAKILVDGGQVVALVKPQFEAGREQIGKNGIVRESSIHEKVLETVTAFAVDYGFSVKGLDFSPIQGGHGN | not soluble
GMGMEHKTYEADLFVWCQQQADGLRALSRSRRDLPDDLDLEHIAEEIEDMGRSELREATSLVRQICVRVIMAMSAPEAPDRARWRSEVVSWHNLLLDTITPGMIDRIDIGVIWRRAVSEAKAALIEINVAPQAGLSFQAPLPADHFLDEDFDYDATVARLGPTA | soluble
QHTEERELKKRLMNTARTVSEMTEVKEALARKKQTEAVRHAVEEIRMINEADYIVVMDMNHIRYTHPVSTSIGKKSEGADEEAAFAEHIYFSEAKGEIGTAVRAFYPVKDQDLNQIGVVLVGKTLPGIADILLHLKRD | not soluble
MSLSDLDRAIAQLRACRLIPEAQVRELCYKARELLIEEGNVVCVDAPVTICGDIHGQFHDLMELFRVGGDVPDTNYLFMGDFVDRGFYSLESEGHHHHHH | not soluble
MKLVPDAFHPGYWGPLLSAHMPRTAYLPVSESFISALQRDSLNEADAERLQSDFSELIQGLSHAMDYLRTDHSTSEGFCPKLNGKLPYDAAWILGRHAPCCYTWNEAMMVLRASSRIHEPTRTSWQGSFCLVVQRWEQIHPANEFRCFISSCRVIAICQRHPDTPYPFLARERDRLVNAMVSFYETHVRPLHPAYAECILDCYLDDSQSVRTLGIDAWSDDALLLFEVSEMEALRAQAAAAFPGQHSDPDGHRQSEAPGEDATGATVSFRSVAQGFAAVPWGWSEKLPLELGDDFLRARIQRNASD | not soluble
MGSDKIHHHHHHMSYSLQKSMVAKVVGLSLVMLLAACSSDQRYKRQVSGDESYLKAPAQHVLNTPAGMILPVQNGDFDIPPVTLNGAVGKELDIRPPVQPLALLNGSRTQTSGDTATLLLENSAQNSQIWSQVIRVLQDNAFTIANRQDASQTLTTDWISWPREDENVPYQGRYQISVQQQGYQVALIVKLLGLQLNGQPVTTSDQTQRYAGLMLNVLSNGLDSQATARENALANRTIGSLDVQSGADDTGLPLLIVRGPYTVVWDRLPVALDKIGMKVNDRSRPQGSVSVTYRAPSGGTWDDLGAKNPELPNGDYKLQVGDLDNRSSLQFIDSKGHTLTQSQNDALVAVFQAAFSK | not soluble
MNKTSKAYQPLLSSKAKIAIIGGGVAGSTIALRFAELGLDTTLIEKGPSLVNGPPICHLHAGGNLYREICDEQCLTLLKQSIDTVKVYPQSVNIRPTVIALPKTDNGQPEDLLPRLEKLRAKYSELVAQDSRNKVLGEPENYFKFYSRTELDALLDLPLPKTAKNDSDWLVAFAQHVDLDSLKFPVLLVQEYGLSAFRFAAIASLAIEGLPSCHLQTNKQVIAIVQQKNSLGWQVSTQALPQHQQSPTIIHQHFDYVINACGFKSGEIDDMVSAKRKRMVEFKAAYVAHWPQCQGLWPEIVFYGERGTPQGMAQLTPYPDGYFQLHGMTQDITLFDQGLVASSLESAQPQLAKRFIEKIDKKWPEQLVHNRTLGSIEHIAQFISAFSSAEVAAKPLFGAQQIPGEDADLRAADVSFYGQHYARAEIVKASSALAAGDAILKNLVDCGLIAALELGRYLTEHYFPVSQQCSEIEVTERAIMLAKQREYPIALAKNLLEHHHHHH | soluble
MGQPPAEEAEQPGALAREFLAAMEPEPAPAPAPEEWLDILGNGLLRKKTLVPGPPGSSRPVKGQVVTVHLQTSLENGTRVQEEPELVFTLGDCDVIQALDLSVPLMDVGETAMVTADSKYCYGPQGSRSPYIPPHAALCLEVTLKTAVDLEHHHHHH | soluble
MKRLLLYVHFNKYNRVSSHVVYQLTQMRSLFSKVIFISNSQVADADVKMLREKHLIDDFIQRQNSGFDFAAWRDGMVFVGFDELVTYDSVTTMNDTCFGPLWEMYSIYQEFETKTTVDFWGLTNNRATKSFREHIQSYFISFKASVLRSTAFRDFWENIKEYQDVQKVIDQYETKVTTTLLDAGFQYDVVFDTTKEDASHMLHADFSYYNPTAILNHRVPFIKVKAIDNNQHITPYLLNDIQKNSTYPIDLIVSHMSEINYPDFSYLLGHKYVKKRERVDLKNQKAAVHLHVFYVDLLEEFLTAFKQFHFSYDLFITTDSDDKKAEIEEILSANSQEAQVFVTGNIGRDVLPMLKLKNYLSTYDFVGHFHTKKSKEADFWAGQSWREELIDMLVKPADNILAQLQQNPKIGLVIADMPTFFRYNKIVDAWNEHLIAPEMNTLWQKMGMTKKIDFNAFHTFVMSYGTFVWFKYDALKPLFDLNLTDDDVPEEPLPQNSILHAIERLLIYIAWNEHYDFRISLEHHHHHH | not soluble
MTLSTINPMKKSRIDNIHHTQILFFSDENQIDQEAPYYDALLDLEKDYPEQIDKMKVYDKKEGWEDEIETVPTLMVVDQRHVVVKIEGCVKKKEDIIKPLQHVLSKLEHHHHHH | not soluble
MKWAYKEENNFEKRRAEGDKIRRKYPDRIPVIVEKAPKSKLHDLDKKKYLVPSDLTVGQFYFLIRKRIQLRPEDALFFFVNNVIPQTMTTMGQLYQDHHEEDLFLYIAYSDESVYGGEVEKKE | not soluble
TLANNRVRLLVNGEASFEAMFKAISAARQVILVQFFIVRDDALGQRLQQLLLERAANGVEVFFLYDAIGSHALPHRYVERLRQGGVQMHGFSTGSGMLNRFQVNFRNHRKVVVVDGECGFVGGHNVGVEYLGEKPPLAPWRDTHMELRGPAVACLQESFAEDWYWATHSLPPLILPPQYDSEGALCQVVASGPA | not soluble
MTIPLWWQNGVIYQIYPKSFQDTTGSGTGDLRGVTQRLDYLQRLGVDAIWLTPFYISPQVDNGYDVANYTAIDPTYGTLDDFDELVAQAKARGIRIILDMVFNHTSTQHAWFREALNKESPYRQFYIWRDGTPDVCPNNWQSKFGGSAWRWHSQSEQYYLHLFAPEQADLNWENPAVRAELKKVCEFWADRGVDGLRLDVVNLIAKDQNFPDDPTGDGRRFYTDGPRAHTFLREMNRDVFTPRNLMTVGEMSSTTLENCQQYAALSGDELSMTFNFHHLKVDYPNGEKWTLAKPDYVALKALFRHWQQGMHNVAWNALFWCNHDQPRIVSRFGDEGEYRVPAAKMLAMALHGMQGTPYIYQGEEIGMTNPHFTRITDYRDVESHNMFAALRAAGRDPDELLAILASKSRDNSRTPMQWDNGKNAGFTQGEPWISLCDNYTEVNVEAALRDENSVFYTYQKLIALRKTQPVLIWGDYQDLLPDSPSVWCYRRQWQGQILLVVANLSNQCQEWHPPHIKGQWQALLHNYGEVASQPAAMTLRPFEAIWWLQR | not soluble
MDNKSEKVTVNKEELRKRLTPVQYQVTQEAGTERPFTGCYNKHYEKGVYQCIVCHQDLFSSETKYDSGCGWPAFNDVLDKGKVTLHRDASIPGGNILLLIAHPERIRTEVRCARCNAHMGHVFEDGPKPTRKRYCINSASIEFVNADPATSSPPVATPTAAPIAQQLEHHHHHH | soluble
MLQRTLAKSISVTGVGLHSGERVALTLHPAPENSGISFRRTDLDGEMGEQIKLTPYLINDTRLSSTIVTDKGVRVGTIEHIMSALSAYGIDNALIELNAPEIPIMDGSSLPFIYLLQDAGVVDQKAQKRFLKILKPVEIKEAGKWVRFTPYDGFKVTLTIEFDHPVFNRSSPTFEIDFAGKSYIDEIARARTFGFMHEVEMMRAHNLGLGGNLNNAIVIDDTDVLNPEGLRYPDEFVRHKILDAIGDLYIVGHPIIGAFEGYKSGHAINNALLRAVLADETAYDRVEFADSDDLPDAFHELNIRTCGLEHHHHHH | not soluble
MAHHHHHHMMLRRLFVFDAARATNMRFLTMTSEVRDNLTKQLSALKEECRGQGLDLADMSDASRVAMRTVQEGLTRVSVEDEIFKGKSITLSASMKAYTARLSNLQDEARSIQTEVDALLKMMWGTEAPTKAASFASPPRSTEEVGVSSSSAAAAAGGKGNETVDDEFIVEPPPLAKALGNDKRPAERVEAERVQGTAHKPVEEMRVEEIEVETIEVEVEPNESPADNMKITDITRELYERGVNFSDCLDARTLRQRYKDVLAGKISPGISPGTATSSPATAEANTNQPRMPQHRPYQQQQQQQQQQLNTNESGLAHDPYPNAYRKMVDPMKHVWELKNELAAEKGIDPKSVDLWSGKCKLEDHKLLYDYPSVQNYPIEVRQKGDIPR | not soluble
VTTRDLTAAQFNETIQSSDMVLVDYWASWCGPCRAFAPTFAESSEKHPDVVHAKVDTEAERELAAAAQIRSIPTIMAFKNGKLLFNQAGALPPAALESLVQQLKAYEVEAGEATTQNGRAQQA | soluble
MGSDKIHHHHHHMRTYRSFKMFTNSSQGVRKVRVGIAGLGTVGGSIYRILKERGNEIEKRIGEKFIISKVINRSPQKYELLGVPKEEIAFDFDDLILNSDVVVEAIGGTDVAVDLVRRALELGRIVVTPNKNLISEYGNEFSEYIKKRKLFFEASVGGGIPIISLLQDYLIFQKVTRIRGIMNGTTNYILTEMSKGRHFEEVLKEAQELGYAEADPTNDIEGYDVAYKVSVLAGVVTGRFPGINSVQFEGITRIDPEYLKEIVRSGKKLKLIGELDFSTNRYEVRLREVTPEDPFFNVDGVDNAIEVSTDLAGDFLLKGRGAGGYPTASAVIADLFRVAKYKVLGGAEKFSVVVMKFGGAAISDVEKLEKVAEKIIKRKKSGVKPVVVLSAMGDTTDHLIELAKTIDENPDPRELDLLLSTGEIQSVALMSIALRKRGYKAISFTGNQLKIITDKRYGSARIIDINTDIISRYLKQDFIPVVAGFQGITETGDITTLGRGGSDLTAIALAYSLGADLCELYKDVDGVYTADPRIVKDARVIKELSWEEMIELSRHGAQVLQARAAEFARKYGVKVLIKNAHKETRGTLIWEGTKVENPIVRAVTFEDGMAKVVLKDVPDKPGVAARIMRTLSQMGVNIDMIIQGMKSGEYNTVAFIVPESQLGKLDIDLLKTRSEAKEIIIEKGLAKVSIVGVNLTSTPEISATLFETLANEGINIDMISASSSRISVIIDGKYVEDAVKAIHSRFELDRE | not soluble
